Assay results as given in paper PMC9596428.

Columns and labels:
[1] = target: mVenus-tagged CaMKIIα K42R mutant holoenzyme (mouse) (UniProt P11798); test: FRET or BRET; in vitro time-lapse binary-FRET (mVenus lifetime for hetero-FRET to mCherry, anisotropy for homo-FRET); V-CaMKII homogenate (15-20 nM holoenzyme) with 10 µM purified NR2B fragment in 1x kinase buffer, 1 mM DTT, 1 mM CaCl2, 1 mM ATP, 1 mM MgCl2, 5 µM calmodulin; room temperature; followed over 3 h
[2] = target: mVenus-tagged CaMKIIα holoenzyme (mVenus-mCaMKIIα), wild type (mouse) (UniProt P11798); test: as above

hetero-FRET efficiency [1]: 12.6%
hetero-FRET efficiency [2]: 11.9%
Substance: mCherry-tagged NR2B binding fragment (6His-mCherry-Flag-NR2B 1265-1320) (from UniProt Q13224 1265-1320) (domain or fragment)
